Several values for one entry are separate records, joined by “and”; a condition that tells them apart may be missing. Identical values can stand only once.
How the values were obtained:
[1] = molecular target: T1, mouse aquaporin 3 (AQP3) on cells (mouse, UniProt Q8R2N1 1-292); assay: fluorescence binding assay on PAM212 cells with AQP3 siRNA (10% of AQP3 expression) against control siRNA, 1 µg/mL (FIG. 19)
T1 construct: whole, on cells; Water channel membrane protein; also called mouse AQP3; AQP3 on PAM212 cells
T1 sequence (looked up): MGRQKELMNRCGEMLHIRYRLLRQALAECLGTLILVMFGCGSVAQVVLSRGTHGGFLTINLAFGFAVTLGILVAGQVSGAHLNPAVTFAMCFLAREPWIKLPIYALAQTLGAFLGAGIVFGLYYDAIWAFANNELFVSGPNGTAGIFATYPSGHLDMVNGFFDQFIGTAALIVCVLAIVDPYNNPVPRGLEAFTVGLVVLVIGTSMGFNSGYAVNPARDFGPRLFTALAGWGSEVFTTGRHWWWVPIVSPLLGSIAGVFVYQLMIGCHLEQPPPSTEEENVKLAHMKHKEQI
Experimental: The resulting siRNA AQP3 cell line had 10% of the AQP3 expression compared to the control siRNA cell line. The siRNA AQP3 and control siRNA PAM212 cells were reacted with SC—F8, BC—H9, BC—B10, and SC—B6 at the chosen concentration 1 μg/mL at 4° C. for 1 hour. After washing the cells, a fluorescent-labeled secondary antibody was added and the reaction was allowed to occur additionally for 1 hour (at 4° C.). By measuring the fluorescence intensity, the binding property of each anti AQP3 antibody to the two cell lines was obtained.
The result of the above experiment is shown in FIG. 19, wherein the vertical axis represents fluorescence intensity, and the mean fluorescence intensity of each sample is represented by bar height together with standard error.

[2] = molecular target: T1, mouse aquaporin 3 (AQP3) on cells; assay: fluorescence binding assay on PAM212 cells, 10 µg/mL
Experimental: (§1) PAM212 cells were reacted with each anti AQP3 antibody at concentrations of none, 1 ng/mL, 10 ng/mL, 100 ng/mL, 1 μg/mL, or 10 μg/mL at 4° C. for 1 hour. After washing the cells, a fluorescent-labeled secondary antibody was added and the reaction was allowed to occur additionally for 1 hour (at 4° C.). By measuring the fluorescence intensity, the binding property of each anti AQP3 antibody to cells was obtained.

[3] = molecular target: T2, oligopeptide SRGTHGGFL (SEQ ID NO: 2); assay: ELISA on peptide SEQ ID NO:2 (FIG. 16B)
T2 construct: Synthetic peptide of AQP3 Loop A; also called Loop A peptide; control peptide
T2 peptide: SRGTHGGFL

[4] = molecular target: T3, oligopeptide ATYPSGHLDM (SEQ ID NO: 1) (human and mouse); assay: ELISA on peptide SEQ ID NO:1, IgG, 50% binding response (FIG. 16A)
T3 construct: Synthetic peptide; positions 148 to 157 of the human AQP3 polypeptide, identical in mouse; also called peptide used for immunization; oligopeptide 5
T3 peptide: ATYPSGHLDM

[5] = molecular target: T3, oligopeptide ATYPSGHLDM (SEQ ID NO: 1); assay: ELISA on coated peptide
Experimental: (§2) To determine the important amino acid residues of an epitope in Loop C involved in binding to specific AQP3 antibody clones, peptides of varying lengths were produced. The sequences of these peptides are shown in column 2 of Table 4.
(§3) The various peptides and AQP3 antibody clones were subjected to ELISA binding analyses. […] The microtiter wells (Costar 2690) were coated with 50 μL of each peptide at 4° C. overnight. The wells were washed 3 times with PBS and blocked with 100 μL of 1% BSA/PBS at 37° C. for 1 hour. Each antibody was adjusted to 1 μg/mL in 1% SBA/PBS as above then serially diluted 1:5 in 1% BSA/PBS. The blocker was discarded and the wells were incubated with 50 μL of antibodies at 37° C. for 1.5 hours. The wells were washed 3 times with PBS and mouse antibodies were detected with 50 μL of goat anti-mouse IgG (H+L) HRP conjugate (ThermoFisher 31438) (1:5,000 in 1% BSA/PBS) and rabbit antibodies were detected with 50 μL of goat anti-rabbit IgG (H+L) HRP conjugate (ThermoFisher 31462) (1:5,000 in 1% BSA/PBS) at 37° C. for 1 hour. The wells were washed 3 times with PBS and developed with 50 μL of HRP substrate at RT for 5 min then stopped with 50 μL of 2N sulfuric acid and binding was measured with a plate reader.

[6] = molecular target: T4, oligopeptide SGHLDM (SEQ ID NO: 99); assay: ELISA on coated peptide
T4 construct: Synthetic peptide, part of Loop C of AQP3
T4 peptide: SGHLDM
Experimental: as §2, §3

[7] = molecular target: T5, oligopeptide ATYPSGH (SEQ ID NO: 103); assay: ELISA on coated peptide
T5 construct: Synthetic peptide, part of Loop C of AQP3
T5 peptide: ATYPSGH
Experimental: as §2, §3

[8] = molecular target: T6, oligopeptide ATYPSG (SEQ ID NO: 104); assay: ELISA on coated peptide
T6 construct: Synthetic peptide, part of Loop C of AQP3
T6 peptide: ATYPSG
Experimental: as §2, §3

[9] = molecular target: T7, oligopeptide YPSGHLDM (SEQ ID NO: 97); assay: ELISA on coated peptide
T7 construct: Synthetic peptide, part of Loop C of AQP3; first diluted in DMSO
T7 peptide: YPSGHLDM
Experimental: as §2, §3

[10] = molecular target: T8, oligopeptide GIFATYPSGHLDM (SEQ ID NO: 107); assay: ELISA on coated peptide
T8 construct: Synthetic peptide, part of Loop C of AQP3
T8 peptide: GIFATYPSGHLDM
Experimental: as §2, §3

[11] = molecular target: T9, oligopeptide AGIFATYPSGHLDM (SEQ ID NO: 106); assay: ELISA on coated peptide
T9 construct: Synthetic peptide, part of Loop C of AQP3
T9 peptide: AGIFATYPSGHLDM
Experimental: as §2, §3

[12] = molecular target: T10, oligopeptide FATYPSGHLDM (SEQ ID NO: 109); assay: ELISA on coated peptide
T10 construct: Synthetic peptide, part of Loop C of AQP3
T10 peptide: FATYPSGHLDM
Experimental: as §2, §3

[13] = molecular target: T11, oligopeptide GHLDM (SEQ ID NO: 100); assay: ELISA on coated peptide
T11 construct: Synthetic peptide, part of Loop C of AQP3
T11 peptide: GHLDM
Experimental: as §2, §3

[14] = molecular target: T12, oligopeptide TAGIFATYPSGHLDM (SEQ ID NO: 105); assay: ELISA on coated peptide
T12 construct: Synthetic peptide, part of Loop C of AQP3
T12 peptide: TAGIFATYPSGHLDM
Experimental: as §2, §3

[15] = molecular target: T13, oligopeptide ATYPSGHLD (SEQ ID NO: 101); assay: ELISA on coated peptide
T13 construct: Synthetic peptide, part of Loop C of AQP3
T13 peptide: ATYPSGHLD
Experimental: as §2, §3

[16] = molecular target: T14, oligopeptide ATYPSGHL (SEQ ID NO: 102); assay: ELISA on coated peptide
T14 construct: Synthetic peptide, part of Loop C of AQP3
T14 peptide: ATYPSGHL
Experimental: as §2, §3

[17] = molecular target: T15, oligopeptide IFATYPSGHLDM (SEQ ID NO: 108); assay: ELISA on coated peptide
T15 construct: Synthetic peptide, part of Loop C of AQP3
T15 peptide: IFATYPSGHLDM
Experimental: as §2, §3

[18] = molecular target: T16, oligopeptide SGPNGTAGIFATYPS (SEQ ID NO: 94); assay: ELISA on coated peptide
T16 construct: Synthetic peptide, part of Loop C of AQP3
T16 peptide: SGPNGTAGIFATYPS
Experimental: as §2, §3

[19] = molecular target: T17, oligopeptide PSGHLDM (SEQ ID NO: 98); assay: ELISA on coated peptide
T17 construct: Synthetic peptide, part of Loop C of AQP3
T17 peptide: PSGHLDM
Experimental: as §2, §3

[20] = molecular target: T18, oligopeptide TYPSGHLDM (SEQ ID NO: 96); assay: ELISA on coated peptide
T18 construct: Synthetic peptide, part of Loop C of AQP3
T18 peptide: TYPSGHLDM
Experimental: as §2, §3

[21] = molecular target: T19, human aquaporin 3 (AQP3) on cells (human, UniProt Q92482 1-292); assay: fluorescence binding assay on HaCaT cells, 10 µg/mL
T19 construct: whole, on cells; Water channel membrane protein; also called human AQP3; AQP3 on HaCaT cells
T19 sequence (looked up): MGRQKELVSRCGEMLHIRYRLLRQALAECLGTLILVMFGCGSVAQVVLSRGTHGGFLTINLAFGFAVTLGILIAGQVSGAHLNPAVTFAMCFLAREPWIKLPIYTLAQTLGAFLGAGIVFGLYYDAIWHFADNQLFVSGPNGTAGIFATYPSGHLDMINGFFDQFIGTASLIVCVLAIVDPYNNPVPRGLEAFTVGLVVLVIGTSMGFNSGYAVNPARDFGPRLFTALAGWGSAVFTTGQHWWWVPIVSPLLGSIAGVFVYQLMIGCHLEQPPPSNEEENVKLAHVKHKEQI
Experimental: as §1, with “HaCaT” for “PAM212”

[22] = molecular target: T1, mouse aquaporin 3 (AQP3) on cells; assay: fluorescence binding assay on PAM212 cells, 1 ng/mL to 10 µg/mL (FIG. 17A)
Experimental: as §1

B1: BC-B10 (IgG) (antibody, V domains shown)
VH: QSVEESGGRLVTPGAPLTLTCTVSRFSLSSYAMTWVRQAPGKGLEWIGIINNDVISSTWYASWVKGRFTISKTSTTMELKMTSLTTEDTATYFCARGGTSGYDIWGPGTLVTVSS
VL: AIKMTQTPSPVSAAVGGTVTINCQSSPSVYKNYLSWYQQKPGQPPKLLIYGASTLASGVPSRFKGSGSGTQFTLTISDVQCDDAATYYCAGGYIGSRDIFSFGGGTEVVVK
notes: also called anti AQP3 antibody BC-B10
- fold decrease in fluorescence intensity on AQP3 siRNA cells against control siRNA cells [1]: ~2 fold
- fold fluorescence intensity over no antibody [2]: ≥ 2 fold
- binding result [3]: no binding
- EC50 [4]: 0.01 µg/mL and ~0.06 nM
- binding signal (plate reader) [5]: 3.98
- binding signal (plate reader) [6]: 0.405
- binding signal (plate reader) [7]: 3.91
- binding signal (plate reader) [8]: 3.54
- binding signal (plate reader) [9]: 3.96
- binding signal (plate reader) [10]: 3.88
- binding signal (plate reader) [11]: 3.9
- binding signal (plate reader) [12]: 3.92
- binding signal (plate reader) [13]: 0.123
- binding signal (plate reader) [14]: 3.99
- binding signal (plate reader) [15]: 3.96
- binding signal (plate reader) [16]: 4
- binding signal (plate reader) [17]: 3.88
- binding signal (plate reader) [18]: 3.76
- binding signal (plate reader) [19]: 3.72
- binding signal (plate reader) [20]: 3.96
- fold fluorescence intensity over no antibody [21]: > 2 fold

B2: BC-H9 (IgG) (antibody, V domains shown)
VH: QSLEESGGRLVTPGTPLTLTCTVSGFSLYTYAMGWVRQAPGKGLEWIGIINNDGISSTWYASWVKGRFTISKTSTTMDLKMTSLTTEDTATYFCARGGTSGYDIWGPGTLVTVSL
VL: AQGLTQTPSPVSAAVGGTVTINCQSGPSVYKNYLSWYQQKAGQPPKLLIYGASTLASGVPSRFKGSGSGTQFTLTISDVQCDDAATYYCAGGYRGSSDIFAFGGGTEVVVK
notes: also called anti AQP3 antibody BC-H9
- binding result [3]: no binding
- EC50 [4]: 0.01 µg/mL and ~0.06 nM
- binding signal (plate reader) [5]: 3.94
- binding signal (plate reader) [6]: 0.053
- binding signal (plate reader) [7]: 3.16
- binding signal (plate reader) [8]: 0.627
- binding signal (plate reader) [9]: 3.94
- binding signal (plate reader) [10]: 3.8
- binding signal (plate reader) [11]: 2.65
- binding signal (plate reader) [12]: 3.75
- binding signal (plate reader) [13]: 0.048
- binding signal (plate reader) [14]: 3.92
- binding signal (plate reader) [15]: 3.9
- binding signal (plate reader) [16]: 3.9
- binding signal (plate reader) [17]: 3.76
- binding signal (plate reader) [18]: 0.824
- binding signal (plate reader) [19]: 0.733
- binding signal (plate reader) [20]: 3.99
- binding result [22]: binds
